First the molecules themselves.
B1: LMJ1.2G (VHH)
VHH: QVQLVETGGGLVQAGGSLRLSCAASGSTFSHSAGGWYRQAPEKQRELVAGIGSDGNINYADSVKDRFTISRDNASNTMYLQMNNLKPEDTAVYVCNIRGSYGNTYYSRWGQGTQVTVSS
B2: LMJ2.5J (VHH)
VHH: QVQLVETRGGLVQAGGSLRLSCAVSGSTFSHSAGGWYRQAPEKQRELVAGIGSAGNINYADSVKDRFTISRDNASNTMYLQMNNLKPEDTAVYVCNIRGSYGNTYYSRWGQGTQVTVSS
B3: LMJ1.3J (VHH)
VHH: QVQLVGTGGGLVQAGGSLRLSCAASGSTFSHSAGGWYRQAPEKQRELVAGISSAGNINYADSVKDRFTISRDNASNTMYLQMNNLKPEDTAVYVCNIRGSYGNTYYSRWGQGTQVTVSS
B4: LMJ2.6A (VHH)
VHH: RVQLVETGGGLVQAGGSLRLSCAVSGRTFSHSAGGWYRQAPEKQRELVAGIRSDGNINYADSVKDRFTISRDNASNTMYLQMNNLKPGDTAVYVCNIRGSYGNTYYSRWGQGTQVTVSS
B5: LMJ2.5C (VHH)
VHH: QVQLVETGGGLVQAGGSLRLSCAASGSTFSHSAGGWYRQAPEKQRELVAGVRSDGNINYADSVKDRFTISRDNASNTMYLQMNNLKPEDTAVYVCNIRGSYGNTYYSRWGQGIQVTVSS
B6: NJT6-IL2 (NJT6 nanobody fused to murine IL-2) (VHH)
VHH: QVQLVETGGDLVQPGGSLRLSCAASGLTLDYYAIGWVRQAPGKEREGVSCITPQDGNTYYDDSVMGRFTILRDNAKNMVYLQMNNLKPEDTAVYFCAAAGALTLDPSEYEYWGQGTQVTVSS
notes: glycine–serine (G5S) linker; murine interleukin-2; size-matched control; also called untargeted IL-2; source: HEK293 cells, transfected, purified (TALON; some by SEC)
B7: NJB2-IL2 (NJB2 nanobody fused to murine IL-2) (VHH)
VHH: QVQLVETGGGLVQAGGSLRLSCAASGSTFSHNAGGWYRQAPEKQRELVAGISSDGNINYADSVKDRFTISRDNASNTMYLQMNNLKPEDTAVYVCNIRGSYGNTYYSRWGQGTQVTVSS
notes: glycine–serine (G5S) linker; murine interleukin-2; about 32 kDa; source: HEK293 cells, transfected, purified (TALON; some by SEC)
B8: LMJ2.5I nanobody, biotin-tagged (VHH)
VHH: RVQLVETGGGLVQAGGSLRLSCAVSGSTFSHSAGGWYRQAPEKQRELVAGIRSDGNINYADSVKDRFTISRDNASNTMYLQMNNLKPEDTAVYVCNIRGSYGNTYYSRWGQGAQVTVSS
notes: The text says the nanobodies for BLI were purified with C-terminal polyhistidine tags; source: E. coli WK6, periplasm, purified (Ni-NTA), then sortase-tagged with biotin; not shown: LPETG sortase motif, C-terminal, kept; His6, C-terminal, cleaved
B9: LMJ1.2C nanobody, biotin-tagged (VHH)
VHH: QVQLVETGGGLVQAGGSLRLSCAASGSTFSHSAGGWYRQAPEKQRELVAGIRSDGNINYADSVKDRFTISRDNASNTMYLQMNNLKPEDTAVYVCNIRGSYGNTYYSRWGQGTQVTVSS
notes: as for B8

One assay concerns the target T1, biotinylated EIIIB (protein fragment of fibronectin splice variant EIIIB) (Homo sapiens (sequence identical in …, UniProt P02751, strain, biotin (ChromaLink NHS-biotin reagent))).
Assay: not given
Conditions: not given
Target sequence in this assay (P02751 1266-1356, change not shown): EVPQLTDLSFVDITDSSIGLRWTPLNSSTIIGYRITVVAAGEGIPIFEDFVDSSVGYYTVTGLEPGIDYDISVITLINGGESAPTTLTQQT
B1: the binding result is given as “binds”.

As for B2, the binding result is “binds”. With B3, the binding result is listed as “binds”. Same read-out and setting: then B4, with “binds”; and B5, with “binds”.

In another assay the target is T1, biotinylated EIIIB (protein fragment of …). As to the kind of experiment: BLI; biotinylated EIIIB immobilised on streptavidin tips (2 μg/mL); nanobody or IL-2 fusion as analyte, 0.1 to 350 nM; PBS with 0.05% Tween-20 and 1% recombinant human albumin; 1:1 binding model, global fit, double referencing. Conditions: both partners purified.
On to B6, for which the binding result is recorded as “no binding (tested: 100 nM)”. For orientation: Kd means a measure of binding affinity in units of concentration. As for B7, the equilibrium dissociation constant (Kd) came out at 2000 pM. On the same count and under the same terms, as for B8, the figure is 25 pM; as for B9, 300 pM.

The values above are taken from article PMC9802395, “Intratumoral nanobody–IL-2 fusions that bind the tumor extracellular matrix suppress solid tumor growth in mice” (PNAS Nexus, 2022).
